Reference: US6855873
Several values for one entry are separate records, joined by “and”; a condition that tells them apart may be missing. Identical values can stand only once. Like-named read-outs stand apart in the source and are kept apart here.

Key:
[1] = target: ICP receptor sites on brush border membrane vesicles of Pieris brassicae (Pieris brassicae); assay: 125I-toxin competition binding on P. brassicae BBMV, LIGAND analysis
[2] = target: ICP receptor sites on brush border membrane vesicles of the Bt18 selected Manduca sexta strain (Manduca sexta)
[3] = target: ICP receptor sites on brush border membrane vesicles of the Bt2/Bt18 selected Manduca sexta strain (Manduca sexta)
[4] = target: ICP receptor sites on brush border membrane vesicles of Heliothis virescens (Heliothis virescens)
[5] = target: ICP receptor sites on brush border membrane vesicles of Manduca sexta (reference, non-selected strain) (Manduca sexta)
[6] = target: ICP receptor sites on brush border membrane vesicles of the sensitive Plutella xylostella strain PxS (Plutella xylostella); assay: 125I-toxin binding on P. xylostella BBMV
[7] = target: ICP receptor sites on brush border membrane vesicles of the sensitive Plutella xylostella strain PxS (Plutella xylostella); assay: cell-based or functional assay; design: unit not given beside the values
[8] = target: ICP receptor sites on brush border membrane vesicles of the Dipel-resistant Plutella xylostella strain PxR (Plutella xylostella); assay: cell-based or functional assay; design: unit not given beside the values
[9] = target: ICP receptor sites on brush border membrane vesicles of the Bt18 selected Manduca sexta strain (Manduca sexta); assay: cell-based or functional assay
[10] = target: ICP receptor sites on brush border membrane vesicles of Manduca sexta (reference, non-selected strain) (Manduca sexta); assay: cell-based or functional assay
[11] = target: ICP receptor sites on brush border membrane vesicles of the Bt2 selected Manduca sexta strain (Manduca sexta); assay: cell-based or functional assay
[12] = target: ICP receptor sites on brush border membrane vesicles of Heliothis virescens (Heliothis virescens); assay: 125I-toxin competition binding on BBMV, filtration, LIGAND analysis
[13] = target: ICP receptor sites on brush border membrane vesicles of Manduca sexta (reference, non-selected strain) (Manduca sexta); assay: as above
[14] = target: ICP receptor sites on brush border membrane vesicles of the Dipel-resistant Plutella xylostella strain PxR (Plutella xylostella); assay: 125I-toxin binding on P. xylostella BBMV
[15] = target: ICP receptor sites on brush border membrane vesicles of Manduca sexta (reference, non-selected strain) (Manduca sexta); remark: listed apart in the source
[16] = target: ICP receptor sites on brush border membrane vesicles of Manduca sexta (reference, non-selected strain) (Manduca sexta); remark: listed apart in the source
[17] = target: ICP receptor sites on brush border membrane vesicles of Manduca sexta (reference, non-selected strain) (Manduca sexta); remark: listed apart in the source

Sequence of Bt14 toxin (P0A374 30-647 limits assumed): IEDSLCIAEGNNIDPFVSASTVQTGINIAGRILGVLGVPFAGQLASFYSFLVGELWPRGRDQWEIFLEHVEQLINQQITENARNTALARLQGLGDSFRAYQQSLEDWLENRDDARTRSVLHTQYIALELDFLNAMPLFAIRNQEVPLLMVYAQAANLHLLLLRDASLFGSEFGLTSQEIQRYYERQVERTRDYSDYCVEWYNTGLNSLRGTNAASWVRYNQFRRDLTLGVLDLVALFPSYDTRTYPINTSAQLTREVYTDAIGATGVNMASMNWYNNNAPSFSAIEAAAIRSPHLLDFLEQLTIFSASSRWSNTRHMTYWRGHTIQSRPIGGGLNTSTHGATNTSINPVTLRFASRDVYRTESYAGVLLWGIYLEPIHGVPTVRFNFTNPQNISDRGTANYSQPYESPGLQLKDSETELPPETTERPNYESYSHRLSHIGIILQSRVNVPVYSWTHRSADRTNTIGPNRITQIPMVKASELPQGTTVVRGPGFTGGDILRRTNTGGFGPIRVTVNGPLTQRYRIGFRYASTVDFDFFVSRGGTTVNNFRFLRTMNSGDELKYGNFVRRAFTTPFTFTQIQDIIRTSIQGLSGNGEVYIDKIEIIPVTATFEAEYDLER
Sequence of Bt3 toxin (P0A366 29-618 limits assumed): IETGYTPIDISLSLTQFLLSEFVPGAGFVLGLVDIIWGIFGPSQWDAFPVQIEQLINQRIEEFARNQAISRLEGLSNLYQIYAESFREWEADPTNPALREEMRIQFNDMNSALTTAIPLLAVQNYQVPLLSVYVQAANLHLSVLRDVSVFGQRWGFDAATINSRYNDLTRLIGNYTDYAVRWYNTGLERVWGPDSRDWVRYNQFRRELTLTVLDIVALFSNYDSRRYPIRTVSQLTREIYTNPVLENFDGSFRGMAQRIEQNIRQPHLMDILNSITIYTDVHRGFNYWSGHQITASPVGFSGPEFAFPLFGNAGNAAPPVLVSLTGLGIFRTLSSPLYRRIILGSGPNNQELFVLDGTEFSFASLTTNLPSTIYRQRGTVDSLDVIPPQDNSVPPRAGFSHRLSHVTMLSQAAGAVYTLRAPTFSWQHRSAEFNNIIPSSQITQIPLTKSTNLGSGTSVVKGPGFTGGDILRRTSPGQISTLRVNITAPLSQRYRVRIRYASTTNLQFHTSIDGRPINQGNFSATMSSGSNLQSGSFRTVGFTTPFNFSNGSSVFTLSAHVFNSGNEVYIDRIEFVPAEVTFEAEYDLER

Row | Substance | Kd [1] [nM] | Rt (binding site concentration) (pmol/mg vesicle protein) [1] | amount bound with labeled toxin alone (cpm) [4] [cpm] | amount bound with labeled toxin alone (cpm) [5] [cpm] | Kd [6] [nM] | Rt (binding site concentration) (pmol/mg protein) [6] | LC50 (larval mortality, artificial diet) (ng protein per cm^2 of artificial diet) [7] | LC50 (larval mortality, artificial diet) (ng protein per cm^2 of artificial diet) [8] | Kd [12] [nM] | Rt (binding site concentration) (pmol/mg vesicle protein) [12] | Kd [13] [nM] | Rt (binding site concentration) (pmol/mg vesicle protein) [13] | other results
1 | Bt2 toxin (from UniProt P0A370 29-607) (ligand) | 2.8 | 12.9 | 1780 | 1820 | 8.1 | 1.6 | 6.7 | > 1350 | 0.6 | 9.7 | 0.4 | 3.4 | Kd [2]: 0.4 nM; Rt (binding site concentration) (pmoles/mg vesicle protein) [2]: 20.8; Kd [3]: 0.4 nM; Rt (binding site concentration) (pmol/mg vesicle protein) [3]: 3.4; LC50 (Bt2 sensitivity) [9]: 4 ng/cm^2; LC50 (Bt2 sensitivity) [10]: 20 ng/cm^2; LC50 of the 20th generation [11]: 6400 µg/g
2 | Bt3 toxin (from UniProt P0A366 29-618) (ligand) |  |  | 472 | 601 |  |  |  |  | 1.2 | 3.7 | 1.5 | 9.8 | 
3 | Bt14 toxin (from UniProt P0A374 30-647) (ligand) | 8.4 | 21.4 |  |  |  |  |  |  |  |  |  |  | 
4 | Bt15 toxin (from UniProt P0A376 28-627) (ligand) |  |  |  |  | 1.9 | 4.2 | 133 | 120 |  |  |  |  | Kd [14]: 3.7 nM; Rt (binding site concentration) (pmol/mg protein) [14]: 5.8; Kd [15]: 0.3 nM and 2.9 nM; Rt2 (binding site concentration) (pmol/mg vesicle protein) [16]: 6.7; Rt1 (binding site concentration) (pmol/mg vesicle protein) [17]: 5.9
5 | Bt73 toxin (from UniProt P05068 29-623) (ligand) |  |  | 6610 | 2380 |  |  |  |  | 0.8 | 19.5 | 0.6 | 4 | 
